Like-named read-outs stand apart in the source and are kept apart here.
Assays:
[1] = system: MDA-MB231 tumor xenografts; test: In vivo fluorescence imaging and biodistribution, MDA-MB231 xenografts
Experimental: (§1) In vivo fluorescence imaging and biodistribution. For the development of subcutaneous tumor xenografts, MDA-MB231, OVCAR-3 and HEC-1B 5×10^6 cells in 0.2 ml sterile PBS were injected subcutaneously in the right hind flank of the female nu/nu mice. Tumor imaging was initiated once the tumor volume reached between 200 mm^3 to 300 mm^3. Each tumor-bearing mice was intravenously injected (via tail vein) with the 10 nano moles of fluorescence dye conjugate either in the presence or absence of a 100-fold excess of the unlabeled conjugate. Animals were euthanized two hours post injection using CO2 and the images were acquired using Caliper IVIS Luminal II. After performing the whole body image, the organs of interest were harvested and imaged to inspect the accumulation of the fluorescence in these organs. The image acquisition parameters were as follows: i) lamp level-high, ii) excitation-745 nm, iii) emission-ICG, iv) binning (M) 4M, (v) f-stop-4, (vi) FOV-12.5, (vii) acquisition time, 1 s. All final conjugates were purified by HPLC prior to its use in in-vitro and in vivo studies.
To determine the efficiency of the conjugates to target the receptor positive tumor in vivo female nu/nu athymic nude mice were subcutaneously implanted with either MCF7, MDA-MB231, OVCAR3 or HEC-1B. Once the tumor reached an appropriate volume the mice were injected intravenously with the dye conjugates (10 nmoles) either in the presence or absence of the excess of the unlabeled targeting molecule. Mice were imaged 2 h post injection to investigate the accumulation of the dye conjugates in tumor and other vital organs.
Mice were treated intravenously with the dye conjugate either in the presence or absence of 100-fold excess of the unlabeled conjugates. […] All the images were acquired 2 h post injection. List of organs from top to bottom: Tumor, heart, lungs, pancreas, spleen, muscle, skin, small intestine, large intestine, stomach, liver, and kidney.
Mice were treated intravenously with the dye conjugate either in the presence or absence of 100-fold excess of the unlabeled conjugates. […] All the images were acquired 2 h post injection. List of organs from top to bottom: Tumor, brain, heart, lungs, stomach, small intestine, large intestine, muscle, pancreas, spleen, liver, and kidney.
Time course study. The effectiveness of JL-L3-S0456 to accumulate in the receptor-positive tumors were further inspected by injection the dye conjugate in ovarian cancer and endometrial xenografts. […] To investigate the retention time of the dye conjugate in the tumor a time-course study was performed. Mice were injected with 10 nmoles of the dye conjugates and imaged at 2 h, 8 h, and 12 h.

OVCAR3 tumor xenografts = settings: ovarian cancer xenografts, 2 h post injection
Experimental: as §1
(§2) To determine the efficiency of the conjugates to target the receptor positive tumor in vivo female nu/nu athymic nude mice were subcutaneously implanted with either MCF7, MDA-MB231, OVCAR3 or HEC-1B. […]

HEC-1B tumor xenografts = settings: endometrial xenografts, 2 h post injection
Experimental: as §1, §2

MDA-MB-231 tumors = test: In vivo efficacy of tubulysin B hydrazide conjugate, LHRH-R positive tumors; set-up: species or system mice
Experimental: (§3) Tumor model and therapy: 5-6 weeks old female nu/nu athymic nude mice were subcutaneously injected with 5.0×10^6 breast cancer cells MDA-MB231 and ovarian cancer cells SKVO3 into their shoulders. Tumors were measured in two perpendicular directions 3 times per week with Vernier calipers, and their volumes were calculated as 0.5×L×W^2, where L is the longest axis (in millimeters), and W is the axis perpendicular to L (in millimeters). Treatment was initiated once the tumor volume reached ˜100 mm^3. Dosing solutions were prepared in sterile saline and injected intravenously. […] Mice were administered with the test agents 3 times per week for 3 weeks and as a measure of gross toxicity mice were simultaneously weighed at each dosing.
In vivo efficacy of tubulysin B hydrazide conjugate: To investigate the efficacy of JL tubulysin conjugate nu/nu athymic nude bearing LHRH-R positive tumors (MDA-MB-231, breast cancer) were randomly divided into three groups: saline control, targeted, and competition and were then treated with test agents 3 days per week for 3 weeks. LHRH-R positive (MDA-MB-231) and negative (SKOV3) cancer cells were s.c implanted in to nu/nu athymic mice and treatment was initiated once the tumor volume reached ˜100 mm^3. Mice were randomized into several groups with 5 mice in each group. […] All the test agents were administered intravenously through tail vein. The mice in control and competition group were euthanized after the last doing whereas the mice in treatment group were continuously monitored for recurrence of tumor and weight loss. […] (FIG. 22A, The dotted vertical line indicates the day of final dosing (day 36)) Without intending to be bound by theory, this further confirmed that the efficacy of targeted tubulysin B hydrazide conjugate is receptor mediated. Moreover, to comprehensively test the anti-tumor efficacy of targeted conjugate (JL-L3-TubBH), mice bearing LHRH-R negative tumors (SKOV3, ovarian cancer) were divided into similar groups as MDA-MB-231 tumor bearing mice and a similar treatment regimen was followed. […] (FIGS. 22B & 22D)
After completion of the treatment the mice in MDA-MB-231 targeted group were monitored and kept on regular chow diet for next five weeks. During this time period the tumor volume and weight was monitored three time a week. (FIG. 23) Mice were treated with the LHRH-R targeted tubulysin B hydrazide conjugate (JR-L3-TubBH) for thrice a week for 3 weeks (n=5). After completion of the study tumor volume and weight of mice was continuously monitored till 75 days post tumor implantation. The dotted vertical line specifies the last day of dosing.

MDA-MB231 cells = assay type: cell-based, human; settings: 2 h exposure + 66 h
Experimental: (§4) In vitro determination of cell viability. MDA-MB231 and SKVO3 cells were seeded at a concentration of 10,000 cells per well on a 24 well plate and allowed to grow in monolayers. […] After incubating for 2 h at 37° C., cells were rinsed three times with fresh medium and then incubated in 0.5 ml fresh medium for an additional 66 h at 37° C. Sent medium was then replaced with 0.5 ml of medium containing ^3H-thymidine and incubated for additional 4 h. Cells were then again washed three times with the fresh medium and then incubated with 0.5 ml of 2.5% trichloroacetic acid for 10 min at room temperature. After removing the trichloroacetic acid, cells were dissolved in 0.25 N NaOH. Cell viability was determined by counting the incorporation of ^3H-thymidine in cells using scintillation counter (Packard, Packard Instrument Company). The IC50 value was derived from a plot of the percent of ^3H-thymidine incorporation versus log concentration using Graph Pad Prism 4.
(§5) In vitro cytotoxicity of tubulysin B hydrazide conjugate: To inspect the killing efficiency of the therapeutic conjugate, MDA-MB231 and SKOV3 cancer cells were incubated with various concentrations of JL-L3-TubBH either in the presence or absence of excess JL-L3, for 2 h at 37° C. After washing off the excess conjugate, the cells were incubated in fresh media for an additional 66 h followed by incubation with media containing ^3H-thymidine to assess cell viability. Radioactivity was counted using PerkinElmer's scintillation counter. The same procedure was repeated after exposing the cells to the free tubulysin B hydrazide.

SKOV3 cells = assay type: cell-based, human; settings: receptor negative cell line, 2 h exposure + 66 h
Experimental: as §4, §5

SKOV3 tumors = test: In vivo efficacy of tubulysin B hydrazide conjugate, LHRH-R negative tumors; set-up: species or system mice; settings: 2 μmol/kg i.v., 3 times per week for 3 weeks
Experimental: as §3
In vivo efficacy of tubulysin B hydrazide conjugate: To investigate the efficacy of JL tubulysin conjugate nu/nu athymic nude bearing LHRH-R positive tumors (MDA-MB-231, breast cancer) were randomly divided into three groups: saline control, targeted, and competition and were then treated with test agents 3 days per week for 3 weeks. […] The mice in control and competition group were euthanized after the last doing whereas the mice in treatment group were continuously monitored for recurrence of tumor and weight loss. […]

[2] = 10 nmoles i.v., 2 h post injection
[3] = 2 μmol/kg i.v., 3 times per week for 3 weeks
[4] = monitored five weeks after treatment, till 75 days post tumor implantation

| SMILES | Kidney fluorescence [1, 2] | Liver fluorescence [1, 2] | Tumor uptake [1, 2] | Competition of tumor uptake by unlabeled JL-L3 ([1]; 100-fold excess of unlabeled conjugate, 2 h post injection) | Tumor fluorescence intensity at 12 h compared with 2 h post injection ([1]; time course, 10 nmoles, imaged at 2 h, 8 h, 12 h) | Tumor uptake (OVCAR3 tumor xenografts) | Tumor uptake (HEC-1B tumor xenografts) | Anti-tumor effect (tumor volume), competition group (MDA-MB-231 tumors; 2 μmol/kg i.v. with 100-fold excess of JL-L3, 3 times per week for 3 weeks) | Anti-tumor effect (tumor volume) (MDA-MB-231 tumors; [3]) | Body weight loss (gross toxicity) (MDA-MB-231 tumors; [3]) | Tumor growth after end of treatment (MDA-MB-231 tumors; [4]) | Weight loss after end of treatment (MDA-MB-231 tumors; [4]) | IC50 (MDA-MB231 cells; 3H-thymidine incorporation, read-out: IC50) [nM] | IC50 (MDA-MB231 cells; excess JL-L3 (100-fold), read-out: IC50 in the presence of an excess of competition ligand) [nM] | IC50 (SKOV3 cells) [nM] | Body weight loss (gross toxicity) (SKOV3 tumors) | Anti-tumor effect (tumor volume) (SKOV3 tumors; receptor negative tumors) |
| --- | --- | --- | --- | --- | --- | --- | --- | --- | --- | --- | --- | --- | --- | --- | --- | --- | --- |
| Cc1c(-c2cccc(CCC(=O)NCCCCCCCC(=O)N[C@H](CCC(=O)NC[C@H](O)[C@@H](O)[C@H](O)[C@H](O)CO)C(=O)N[C@H](CCC(=O)O)C(=O)N[C@H](CCC(=O)NC[C@H](O)[C@@H](O)[C@H](O)[C@H](O)CO)C(=O)N[C@H](CSC3CC(=O)N(CCNC(=O)CCc4ccc(OC5=C(/C=C/C6=[N+](CCCCS(=O)(=O)O)c7ccc(S(=O)(=O)[O-])cc7C6(C)C)CCC/C5=C\C=C5\N(CCCCS(=O)(=O)O)c6ccc(S(=O)(=O)O)cc6C5(C)C)cc4)C3=O)C(=O)O)c2)c(=O)n(C[C@@H](N)c2ccccc2)c(=O)n1Cc1c(F)cccc1F (some centres unmarked) [JL-L3-S0456] | high fluorescence | none or very minimal fluorescence | accumulated in the breast cancer tumor | able to compete the tumor uptake | only a very slight decrease in the intensity | receptor-mediated uptake | receptor-mediated uptake | – | – | – | – | – | – | – | – | – | – |
| CCCC(=O)OCN(C(=O)[C@@H](NC(=O)C1CCCCN1C)C(C)CC)[C@H](C[C@@H](OC(C)=O)c1nc(C(=O)N[C@@H](Cc2ccc(O)cc2)C[C@H](C)C(=O)NNC(=O)OCCSSC[C@@H](NC(=O)[C@@H](CCC(=O)NC[C@H](O)[C@@H](O)[C@H](O)[C@H](O)CO)NC(=O)[C@@H](CCC(=O)O)NC(=O)[C@@H](CCC(=O)NC[C@H](O)[C@@H](O)[C@H](O)[C@H](O)CO)NC(=O)CCCCCCCNC(=O)CCc2cccc(-c3c(C)n(Cc4c(F)cccc4F)c(=O)n(C[C@@H](N)c4ccccc4)c3=O)c2)C(=O)O)cs1)C(C)C (some centres unmarked) [JL-L3-TubBH] | – | – | – | – | – | – | – | did not show any decline in tumor growth | complete elimination of the tumor | None of the mice either bearing MDA-MB-231 or SKVO3 experiences significant weight loss | None of the mice showed any indication of tumor growth and weight loss | None of the mice showed any indication of tumor growth and weight loss | 26 | 382 | 608 | None of the mice either bearing MDA-MB-231 or SKVO3 experiences significant weight loss | no reduction in tumor volume |
